The values below come from article doi:10.1101/2022.10.06.511153 (bioRxiv, 2022).

Data set [1] addresses MksE (Corynebacterium glutamicum) (UniProt Q8NLY1). The data set can be described thus: BLI. (Biolayer interferometry detects binding as a change in optical thickness at a sensor tip.)
The target in data set [2] is MksB (Corynebacterium glutamicum) (UniProt Q8NLY2). The data set can be described thus: BLI.
The data set “crystal structure” deals with the molecule itself. The data set can be described thus: crystal structure.

Usually Kd stands for the concentration at which binding is half-saturated. Low values mean higher affinity, high ones lower affinity. Turning to “MksF (from UniProt Q8NLY0 1-495) (natural protein)”, the Kd in data set [1] was determined as 2.17 µM; in data set [2] it was 4.94 µM.

B1: MksG (6xHis-SUMO construct for crystallization) (natural protein, Corynebacterium glutamicum)
chain: MPLFIDDALHRSKKYFHAHLSELLLGEFAGLSLPLHPPTAAKAAADIDATREFIRQWEGRDDVEYAIRNWSPVGLGKTEVPVRLTLNTTEELVVFAQVEDEWSSLHERFSQLSGFTAEVVAKHVSLWRSLSNDDLSKAVLVVDWFLKHPNSGLLKRAVAVEGVHTKWLENHRVLIETLVADKRGEPGRADLGLGDAEARVRLRFHSVDAPAGLTDIEVPLSNLCELQEPQVILMVENLDSFLALPTWPGVTIAWGAGYRAVDIVRGPYFSNGRLLYWGDLDLDGFKILDGVRSHVPHTESVLMNSETVSRWRYLGVADREFKAESFDNLHDFESDALDLLITDGELRIEQERIRLDVAVEEIEKVIRG
Broadly, the stoichiometry N is the number of molecules, sites or subunits per partner or assembly. For B1, the “stoichiometry N” value in “crystal structure” came out at 2.
